Measurements: patent US20210363266A1

Tests used:
[1] = biological target: human 4-1BB on the reporter cell strain HEK293F-h4-1BB-NFkB (human) (UniProt Q07011); test: cell-based or functional assay
[2] = biological target: human 4-1BB His protein (Sinobiological, Beijing #10041-H08H) (human) (UniProt Q07011); test: capture ELISA, antibody captured, biotinylated 4-1BB-his
Sequence of human 4-1BB His protein (Sinobiological, Beijing #10041-H08H) (human) (Q07011 24-186 limits assumed): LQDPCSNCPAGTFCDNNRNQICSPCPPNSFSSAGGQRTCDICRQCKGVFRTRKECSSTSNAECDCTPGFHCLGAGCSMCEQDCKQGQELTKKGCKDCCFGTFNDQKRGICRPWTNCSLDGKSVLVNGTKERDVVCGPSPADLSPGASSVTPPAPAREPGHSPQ

Sequence of human 4-1BB on the reporter cell strain HEK293F-h4-1BB-NFkB (human) (Q07011 24-255): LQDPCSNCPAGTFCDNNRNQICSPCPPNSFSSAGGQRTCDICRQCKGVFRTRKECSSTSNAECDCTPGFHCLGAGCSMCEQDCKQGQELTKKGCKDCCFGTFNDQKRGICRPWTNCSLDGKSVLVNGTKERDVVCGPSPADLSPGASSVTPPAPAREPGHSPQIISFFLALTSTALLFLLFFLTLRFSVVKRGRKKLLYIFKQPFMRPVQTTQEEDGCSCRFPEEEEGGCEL
Sequence of Urelumab (BMS) (antibody) (VH): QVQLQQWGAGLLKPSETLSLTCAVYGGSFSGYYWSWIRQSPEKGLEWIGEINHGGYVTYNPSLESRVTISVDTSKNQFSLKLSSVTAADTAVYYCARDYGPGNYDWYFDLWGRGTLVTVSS
Sequence of Urelumab (BMS) (antibody) (VL): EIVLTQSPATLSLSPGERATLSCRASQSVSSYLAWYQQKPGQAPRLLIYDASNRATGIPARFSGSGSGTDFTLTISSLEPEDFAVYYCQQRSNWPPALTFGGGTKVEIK

luciferase activity (antibody at 10 nM) [1]	EC50 [2] [µg/mL]	Substance
290		hIgG (antibody)
2190	0.192	Urelumab (BMS) (antibody)
1000		MOR7480 (Pfizer) (antibody)
